Source: doi:10.1101/2024.10.03.616038 (2024)

Molecular target: SARS-CoV-2 Spike RBD, original (Wuhan) strain (SARS-CoV-2, UniProt P0DTC2)
Experiment: SPR

Row | Binder | Kd [pM]
1 | REGN10987 (IgG1) (antibody, V domains shown) VH: QVQLVESGGGVVQPGRSLRLSCAASGFTFSNYAMYWVRQAPGKGLEWVAVISYDGSNKYYADSVKGRFTISRDNSKNTLYLQMNSLRTEDTAVYYCASGSDYGDYLLVYWGQGTLVTVSS VL: QSALTQPASVSGSPGQSITISCTGTSSDVGGYNYVSWYQQHPGKAPKLMIYDVSKRPSGVSNRFSGSKSGNTASLTISGLQSEDEADYYCNSLTSISTWVFGGGTKLTVL | 14500
2 | LY-CoV1404 (IgG1) (antibody, V domains shown) VH: QITLKESGPTLVKPTQTLTLTCTFSGFSLSISGVGVGWLRQPPGKALEWLALIYWDDDKRYSPSLKSRLTISKDTSKNQVVLKMTNIDPVDTATYYCAHHSISTIFDHWGQGTLVTVSS VL: QSALTQPASVSGSPGQSITISCTATSSDVGDYNYVSWYQQHPGKAPKLMIFEVSDRPSGISNRFSGSKSGNTASLTISGLQAEDEADYYCSSYTTSSAVFGGGTKLTVL | 977
3 | S2K146 (IgG1) (antibody, V domains shown) VH: QVQLVESGGVVVQPGGSLRLSCAASGFTFHDHTMHWVRQAPGKGLEWVSLITWNGGTIHYSDSVKGRFTISRDNSKNSLYLQMNSLRTEDTALYYCAKDLGRGGWYLPSDAWGQGTLVTVSS VL: not shown | 45.7
4 | DXP-604 (IgG1) (antibody, V domains shown) VH: EVQLVESGGGLIQPGGSLRLSCAASGIIVSSNYMTWVRQAPGKGLEWVSVIYSGGSTFYADSVKGRFTISRDNSKNTLYLQMSSLRAEDTAVYYCARDLGPYGMDVWGQGTTVTVSS VL: DIQLTQSPSFLSASVGDRVTITCRASQGISSDLAWYQQKPGKAPNLLIYAASTLQSGVPSRFSGSGSGTEFTLTISSLQPEDFATYYCQQLNSDLYTFGQGTKLEIK | 214
5 | BD55-5840 (IgG1) (antibody, V domains shown) VH: VQLAQSGSELRKPGASVKVSCDTSGHSFTSNAIHWVRQAPGQGLEWMGWINTDTGTPTYAQGFTGRFVFSLDTSARTAYLQISSLKADDTAVFYCARERDYSDYFFDYWGQGTLVTVSS VL: EVVMTQSPASLSVSPGERATLSCRARASLGISTDLAWYQQRPGQAPRLLIYGASTRATGIPARFSGSGSGTEFTLTISSLQSEDSAVYYCQQYSNWPLTFGGGTKVEIK | 75.9
